One molecule from patent publication US20180155433A1 (GAMAMABS PHARMA, published 2018) can be followed below.

In test [1] the target is T1, Recombinant human HER3 extracellular domain (ECD) (human, UniProt P21860 20-643).
T1 construct: extracellular domain; Bought from R&D Systems; also called recombinant human HER3 ECD; HER3 receptor
The test is described as follows: ELISA, recombinant human HER3 ECD coated at 50 ng/well, antibody from 3 nM to 6.5 pM, four-parameter fit. As for the experimental part:
Nunc Maxisorp plates were coated with 50 ng/well recombinant human HER3 ECD for 16 hours at 4° C. and were blocked with 2% BSA in PBS. Anti-HER3 antibodies GMB301 and H4B-121-emb were serially diluted from 0.5 μg/ml to 1 ng/ml (3 nM to 6.5 pM) and incubated 1 hour at 37° C.

Test [2] deals with T2, human HER3-Fc (recombinant HER3 extracellular domain Fc fusion, R&D systems) (human, UniProt P21860 20-643).
T2 construct: extracellular domain; Bought reagent (R&D Systems); Coated on plates at 50 ng per well; not shown: Fc part of the bought fusion (R&D Systems)
T2 sequence (P21860 20-643): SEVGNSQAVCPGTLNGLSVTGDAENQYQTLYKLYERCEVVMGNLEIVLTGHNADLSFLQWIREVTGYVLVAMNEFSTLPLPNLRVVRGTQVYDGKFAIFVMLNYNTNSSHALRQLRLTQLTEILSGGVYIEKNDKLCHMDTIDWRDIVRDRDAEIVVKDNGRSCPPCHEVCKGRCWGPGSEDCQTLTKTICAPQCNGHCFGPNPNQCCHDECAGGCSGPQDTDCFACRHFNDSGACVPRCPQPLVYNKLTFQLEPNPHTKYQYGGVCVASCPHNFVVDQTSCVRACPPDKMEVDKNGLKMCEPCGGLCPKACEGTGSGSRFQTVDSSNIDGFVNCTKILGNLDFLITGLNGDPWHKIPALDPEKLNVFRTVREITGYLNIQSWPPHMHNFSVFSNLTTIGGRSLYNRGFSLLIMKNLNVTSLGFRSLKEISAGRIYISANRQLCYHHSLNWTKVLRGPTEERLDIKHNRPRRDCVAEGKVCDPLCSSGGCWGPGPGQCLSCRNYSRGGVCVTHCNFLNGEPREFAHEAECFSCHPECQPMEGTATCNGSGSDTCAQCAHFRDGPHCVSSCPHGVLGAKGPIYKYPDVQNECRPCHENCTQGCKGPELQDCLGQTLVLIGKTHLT
Briefly: ELISA, HER3-Fc coated at 50 ng per well, GMB301 from 3.3 nM to 6.5 pM, HRP anti-human F(ab')2 detection. Here is the method: GMB301 was incubated for 1 hour at 37° C. in Maxisorp® plates (Nunc) coated wells with 50 ng human HER3-Fc (recombinant HER3 extracellular domain Fc fusion, R&D systems).
Bound GMB301 antibody were detected by a conjugated HRP-F(ab′)2 goat anti human IgG F(ab′)2 specific (Interchim). After two hours at 37° C. and three washes with PBS-Tween₂₀ 0.5%, TMB (3,3,5,5-tetramethylbenzidine, Sigma) was used as substrate for detecting HRP activity and 1M H₂SO₄ was added to stop the reaction and plate was read at 450 nm.

T1 sequence (P21860 20-643): as above

B1: GMB301 (chimeric low-fucose anti-human HER3 antibody) (antibody, human IgG1, kappa, V domains shown)
VH: EVKLVESGGGLVQPGGSLKLSCAASGFTFSSYTMSWVRQTPEKRLEWVAYISDGGGVTYYPDTIKGRFTISRDNAKNTLYLQMSSLKSEDTAMYYCARDRYGLFAYWGQGTLVTVSA
VL: DIVMTQSQKFMSTSVGDRVSITCKASQNVGIAVAWYQQKPGQSPKLLIYSASNRYTGVPDRFTGSGSGTDFTLTISNMQSEDLADYFCQQYSNYPYTFGGGTKLEIKR
modifications: low-fucose N-glycan (produced in YB2/0 cells)
notes: also called mAb GMB301; low-fucose chimerized antibody GMB301
Take B1: the EC50 in test [1] and in test [2] was 0.19 nM in each case.
